Measured values as given in patent US20250108091A1, “PROTEIN FORMULATION, PREPARATION METHOD THEREFOR AND USE THEREOF” (BEIJING LIANGYUAN BIO-SCIENCE, LLC, priority 2022, published 2025).

What was measured:
[1] = in serum in vivo; cited from earlier work
βγ dimer = molecular target: T1, βγ dimer (Homo sapiens, UniProt P14784+P31785); conditions: medium affinity; cited from earlier work
T1 sequence (P14784 27-551): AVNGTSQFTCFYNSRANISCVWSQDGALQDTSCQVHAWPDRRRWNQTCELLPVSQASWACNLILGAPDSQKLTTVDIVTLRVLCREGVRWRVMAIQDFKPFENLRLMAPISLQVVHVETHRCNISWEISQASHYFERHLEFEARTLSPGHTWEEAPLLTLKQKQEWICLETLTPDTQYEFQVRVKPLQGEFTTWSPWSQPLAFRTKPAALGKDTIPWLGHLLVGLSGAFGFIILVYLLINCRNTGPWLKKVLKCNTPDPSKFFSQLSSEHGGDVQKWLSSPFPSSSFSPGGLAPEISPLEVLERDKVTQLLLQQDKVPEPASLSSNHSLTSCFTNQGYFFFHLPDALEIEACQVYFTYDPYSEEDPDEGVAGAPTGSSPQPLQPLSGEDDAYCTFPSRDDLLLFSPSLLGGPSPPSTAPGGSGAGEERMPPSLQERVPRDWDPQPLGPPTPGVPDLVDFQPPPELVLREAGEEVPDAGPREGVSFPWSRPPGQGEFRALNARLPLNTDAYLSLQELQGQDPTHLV
T1 sequence (P31785 23-369): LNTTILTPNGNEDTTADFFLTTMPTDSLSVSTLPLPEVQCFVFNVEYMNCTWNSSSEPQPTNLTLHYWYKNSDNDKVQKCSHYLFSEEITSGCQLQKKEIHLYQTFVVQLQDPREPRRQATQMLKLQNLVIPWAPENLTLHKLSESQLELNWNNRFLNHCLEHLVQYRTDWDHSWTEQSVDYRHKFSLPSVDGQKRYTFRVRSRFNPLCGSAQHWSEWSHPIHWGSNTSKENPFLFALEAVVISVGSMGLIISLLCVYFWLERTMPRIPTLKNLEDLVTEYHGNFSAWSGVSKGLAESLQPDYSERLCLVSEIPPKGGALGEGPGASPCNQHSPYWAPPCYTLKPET

IL-2 protein = molecular target: T2, IL-2 protein (Homo sapiens, UniProt P60568, C145S); test: Isothermal titration calorimetry (ITC), interaction with IL-2; assay type: binding; conditions: SDS with IL-2, 7.69 mM sodium phosphate buffer, 25° C.; read-out: equilibrium dissociation constant Kd
T2 construct: made in house; host or cells: Escherichia coli
T2 sequence (P60568 21-153 C145S): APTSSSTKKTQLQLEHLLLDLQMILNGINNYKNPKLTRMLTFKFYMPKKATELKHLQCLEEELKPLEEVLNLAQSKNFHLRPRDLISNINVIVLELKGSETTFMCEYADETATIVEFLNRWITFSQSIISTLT
Procedure: (1) Preparation of samples: • A. PEG2000-DSPE solution: dissolved in 10 mM sodium acetate buffer (pH=5.5), with a concentration of 0.5 mM; • B. SDS solution: dissolved in 7.69 mM sodium phosphate buffer (pH=7.6), with a concentration of 1.73 mM; • C. IL-2 solution: dissolved in 10 mM sodium acetate buffer (pH=5.5), with a concentration of 0.005 mM; • D. IL-2 solution: dissolved in 7.69 mM sodium phosphate buffer (pH=7.0), with a concentration of 0.0164 mM.
10 The MicroCal ITC 200 isothermal titration calorimeter and its supporting operating software from Malvern Panalytical Company were used. Refer to the table below for specific parameter settings:
(3) To determine the interaction between PEG2000-PE and IL-2, 40 μl sample A was added to the syringe, and 250 μl sample C was added to the sample cell. To determine the interaction between SDS and IL-2, 40 μl sample B was added to the syringe, and 250 μl sample D was added to the cell. […] After the reaction was completed, the measured heat change was integrated and subjected to reaction curve fitting (FIG. 4) to calculate various parameters of the interaction between the two samples, wherein the K value measured in the ITC is the binding constant, with a unit of M-1, and its reciprocal is the dissociation constant Kd of the two substances, with a unit of M. The smaller the Kd value, the stronger the affinity between the two substances.

Molecule | half-life [1] [min] | Kd (βγ dimer) [µM] | Kd (IL-2 protein) [µM]
IL2: T cell growth factor, glycoprotein of four α-helices, molecular weight 15.5 Kd | 10 to 85 | ~0.001 | 
CCCCCCCCCCCCOS(=O)(=O)[O-].[Na+] [SDS, sodium dodecyl sulfate] |  |  | ~37.3
